Measurements as given in patent publication US20020137113A1 (Genentech, published 2002).

Target: trkB.IgG (untagged trk.IgG fusion of the trkB extracellular domain and IgG-1 Fc) (human, UniProt Q16620 32-430)
Assay: competitive displacement of iodinated NT5 from trkB.IgG in 293 cell supernatant

Sequence of trkB.IgG (untagged trk.IgG fusion of the trkB extracellular domain and IgG-1 Fc) (Q16620 32-822): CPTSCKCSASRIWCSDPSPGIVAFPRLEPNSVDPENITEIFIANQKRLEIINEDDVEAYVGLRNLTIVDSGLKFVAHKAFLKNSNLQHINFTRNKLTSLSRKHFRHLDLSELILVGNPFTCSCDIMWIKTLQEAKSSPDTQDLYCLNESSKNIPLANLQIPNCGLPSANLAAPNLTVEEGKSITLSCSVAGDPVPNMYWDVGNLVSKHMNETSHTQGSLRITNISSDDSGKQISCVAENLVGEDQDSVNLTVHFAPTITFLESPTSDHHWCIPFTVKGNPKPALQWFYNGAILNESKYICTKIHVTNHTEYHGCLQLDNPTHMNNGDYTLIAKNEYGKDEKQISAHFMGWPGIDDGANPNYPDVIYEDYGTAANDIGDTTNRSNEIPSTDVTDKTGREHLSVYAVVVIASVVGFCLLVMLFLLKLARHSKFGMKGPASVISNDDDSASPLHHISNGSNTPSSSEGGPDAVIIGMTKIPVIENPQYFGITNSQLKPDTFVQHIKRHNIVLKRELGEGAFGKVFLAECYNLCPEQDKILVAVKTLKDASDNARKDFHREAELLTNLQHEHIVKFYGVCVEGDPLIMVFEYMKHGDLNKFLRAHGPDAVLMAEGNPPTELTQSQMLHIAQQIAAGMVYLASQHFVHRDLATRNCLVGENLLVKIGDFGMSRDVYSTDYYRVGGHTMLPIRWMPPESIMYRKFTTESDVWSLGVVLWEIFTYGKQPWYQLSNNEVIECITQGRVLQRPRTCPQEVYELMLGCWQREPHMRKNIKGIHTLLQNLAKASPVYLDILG

B1: neurotrophin 5 (NT5) (ligand, UniProt P34130 81-210, looked up)
chain: GVSETAPASRRGELAVCDAVSGWVTDRRTAVDLRGREVEVLGEVPAAGGSPLRQYFFETRCKADNAEEGGPGAGGGGCRGVDRRHWVSECKAKQSYVRALTADAQGRVGWRWIRIDTACVCTLLSRTGRA
notes: It is printed as NTS in several places, which I read as a misprint of NT5; The tracer in the displacement assay was the iodinated form; also called NTS
Binder B1 has an IC50 of 0.0311 nM.
